The term EC50 denotes the concentration that produces a half-maximal response.

Experiment [1] deals with 人重组结合素-4蛋白 (recombinant human Nectin-4, extracellular domain) (human) (UniProt Q96NY8). Description: ELISA, recombinant human Nectin-4 coated on plate. For orientation: ELISA stands for enzyme-linked immunosorbent assay.
The target in experiment [2] is 人结合素-4 (full-length human Nectin-4 on cells) (human) (UniProt Q96NY8). The experiment in a line: FACS competition: antibody titrated against biotinylated human Nectin-1-His (competitor, 0.75 ug/ml) on CHO-Nectin-4 cells.
人结合素-4 (full-length human Nectin-4 on cells) (human), sequence (Q96NY8 32-510): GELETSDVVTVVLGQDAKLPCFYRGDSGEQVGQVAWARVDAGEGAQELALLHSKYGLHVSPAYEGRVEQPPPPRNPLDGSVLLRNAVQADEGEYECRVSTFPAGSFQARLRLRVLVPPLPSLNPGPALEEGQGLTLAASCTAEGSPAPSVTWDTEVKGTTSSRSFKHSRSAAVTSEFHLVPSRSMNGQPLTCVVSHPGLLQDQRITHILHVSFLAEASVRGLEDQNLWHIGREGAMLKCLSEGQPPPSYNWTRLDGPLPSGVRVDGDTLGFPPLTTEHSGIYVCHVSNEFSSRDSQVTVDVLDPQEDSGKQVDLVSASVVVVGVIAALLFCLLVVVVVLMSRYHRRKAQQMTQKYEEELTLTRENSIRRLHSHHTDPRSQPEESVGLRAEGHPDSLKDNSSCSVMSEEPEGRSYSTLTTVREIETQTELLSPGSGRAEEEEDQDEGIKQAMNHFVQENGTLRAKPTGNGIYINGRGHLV

人重组结合素-4蛋白 (recombinant human Nectin-4, extracellular domain) (human), sequence (Q96NY8 32-349): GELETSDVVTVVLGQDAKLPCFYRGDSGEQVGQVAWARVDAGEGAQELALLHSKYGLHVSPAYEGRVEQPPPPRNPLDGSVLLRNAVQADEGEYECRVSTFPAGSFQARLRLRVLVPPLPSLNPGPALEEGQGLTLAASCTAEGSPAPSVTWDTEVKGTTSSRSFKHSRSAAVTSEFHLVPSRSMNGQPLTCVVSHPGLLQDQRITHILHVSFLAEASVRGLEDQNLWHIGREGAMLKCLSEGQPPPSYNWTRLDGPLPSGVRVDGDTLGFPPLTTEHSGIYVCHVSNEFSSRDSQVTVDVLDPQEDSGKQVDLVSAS

Consider “阳性对照1 (PC1), in-house Nectin-4-specific antibody based on enfortumab antibody (AGS-22M6)”, for which the EC50 in experiment [1] is 0.34 nM; in experiment [2], 0.16 nM.

The record behind these values is patent CN116507641A.
